The data set “native MS” deals with the molecule itself. Kind of data set: native MS.
Data set [1] concerns the target T1, SARS-CoV nsp9 (SARS-CoV), P0C6X7.
T1 chain: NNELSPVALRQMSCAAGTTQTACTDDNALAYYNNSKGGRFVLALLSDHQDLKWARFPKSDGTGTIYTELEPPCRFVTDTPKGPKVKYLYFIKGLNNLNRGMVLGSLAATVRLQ
Kind of data set: native MS. The following applies: remark: other sources report otherwise.

B1: SARS-CoV main protease M^pro with authentic ends (enzyme)
chain: SGFRKMAFPSGKVEGCMVQVTCGTTTLNGLWLDDTVYCPRHVICTAEDMLNPNYEDLLIRKSNHSFLVQAGNVQLRVIGHSMQNCLLRLKVDTSNPKTPKYKFVRIQPGQTFSVLACYNGSPSGVYQCAMRPNHTIKGSFLNGSCGSVGFNIDYDCVSFCYMHHMELPTGVHAGTDLEGKFYGPFVDRQTAQAAGTDTTITLNVLAWLYAAVINGDRWFLNRFTTTLNDFNLVAMKYNYEPLTQDHVDILGPLSAQTGIAVLDMCAALKELLQNGMNGRTILGSTILEDEFTPFDVVRQCSGVTFQ
notes: also called 3CL^pro; nsp5
B1: the “stoichiometry N” value in “native MS” worked out at 2.

B2: SARS-CoV nsp9, P0C6X7 (natural protein)
chain: T1 chain
Take B2: in data set [1], the mass fraction of dimers came to 25%, the mass fraction of monomers was 75% and the stoichiometry N was determined as 2.

A word on the stoichiometry N: it is a count of units in the complex or per binding partner.

For the origin of these results see paper PMC7078746, “Processing of the SARS-CoV pp1a/ab nsp7–10 region” (Biochemical Journal, 2020).
